Experimental data published in IntAct's records for PubMed 20622900.

Molecular target: mk03_human MAPK3 (UniProt P27361)
Sequence (P27361 whole entry): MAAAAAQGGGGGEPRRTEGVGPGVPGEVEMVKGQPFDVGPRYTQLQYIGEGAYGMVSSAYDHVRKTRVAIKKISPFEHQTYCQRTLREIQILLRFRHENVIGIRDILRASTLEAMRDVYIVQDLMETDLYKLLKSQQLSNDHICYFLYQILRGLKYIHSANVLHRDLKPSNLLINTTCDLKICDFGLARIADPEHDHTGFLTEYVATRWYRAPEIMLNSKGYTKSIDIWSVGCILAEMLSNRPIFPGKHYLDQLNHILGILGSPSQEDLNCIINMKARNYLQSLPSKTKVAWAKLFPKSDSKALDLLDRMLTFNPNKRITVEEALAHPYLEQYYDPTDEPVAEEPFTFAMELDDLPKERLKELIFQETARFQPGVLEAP

| Substance | effect of a mutation on the interaction |
| --- | --- |
| Protein scribble homolog (Homo sapiens), Q14160 R839A;R840A | decreasing interaction |
| Protein scribble homolog (Homo sapiens), Q14160 K1399A;R1400A | disrupting interaction |
